Patent publication US20210371530A1 (Merck Sharp & Dohme, published 2021)

Biological target: human PD-1 on cells (human, UniProt Q15116 25-288)
Assay: cell-based or functional assay

human PD-1 on cells, sequence (Q15116 25-288): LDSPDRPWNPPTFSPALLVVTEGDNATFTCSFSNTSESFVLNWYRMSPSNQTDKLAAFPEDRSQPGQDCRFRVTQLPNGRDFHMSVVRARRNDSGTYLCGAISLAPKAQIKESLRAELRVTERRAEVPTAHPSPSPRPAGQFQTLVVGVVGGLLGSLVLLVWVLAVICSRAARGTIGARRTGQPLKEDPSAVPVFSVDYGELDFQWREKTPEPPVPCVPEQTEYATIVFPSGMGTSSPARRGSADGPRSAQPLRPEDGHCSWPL

AVG EC50 (nM), IL-2 luciferase reporter, Jurkat.hPD-1.IL2luc + THP-1.PD-L1 assay: 3.12 nM
B1: Anti-PD-1/LAG3 bispecific antibody 33ARK (bispecific antibody, human IgG1, kappa, L234A L235A)
heavy 1: EVQLVQSGAEVKKPGASVKVSCKASGYTFTSYYLYWVREAPGQGLEWIGGVNPSNGGTNFNEKFKSRVTLTVDTSISTAYMELSRLRSDDTAVYYCTRRDSNYDGGFDYWGQGTTVTVSSASTKGPSVFPLAPSSKSTSGGTAALGCEVTDYFPEPVTVSWNSGALTSGVHTFPAVLESSGLYSLSSVVTVPSSSLGTQTYICNVNHKPSNTKVDKKVEPKSCDKTHTCPPCPAPEAAGGPSVFLFPPKPKDTLMISRTPEVTCVVVSVSHEDPEVKFNWYVDGVEVHNAKTKPREEQYNSTYRVVSVLTVLHQDWLNGKEYKCKVSNKALPAPIEKTISKAKGQPREPQVYVLPPSRDELTKNQVSLLCLVKGFYPSDIAVEWESNGQPENNYLTWPPVLDSDGSFFLYSKLTVDKSRWQQGNVFSCSVMHEALHNHYTQKSLSLSPG
light 1: DIVMTQTPLSLSVTPGQPASISCRASKSVSTSGFSYLHWYLRKPGQPPQLLIFLASNLESGVPDRFSGSGSGTDFTLKISRVEAEDVGVYYCQHSWELPLTFGQGTKLEIKRTVAAPSVFIFPPSDERLKSGTASVVCLLNNFYPREAKVQWKVDNALQSGNSKESVTEQDSKDSTYSLSSRLTLSKADYEKHKVYACEVTHQGLSSPVTKSFNRGEC
heavy 2: not shown
light 2: DIVMTQTPLSLSVTPGQPASISCKASQSLDYEGDSDMNWYLEKPGQPPQLLIYGASNLESGVPDRFSGSGSGTDFTLKISRVEAEDVGVYYCQQSTEDPRTFGGGTKVEIKRTVAAPSVFIFPPSDEELKSGTASVVCLLNNFYPREAKVQWKVDNALQSGNSEESVTEQDSKDSTYSLSSTLELSKADYEKHKVYACEVTHQGLSSPVTKSFNRGEC
